The numbers were not newly measured in article PMC12020373, which cites them from elsewhere.

Some targets named below: Cys403 (UniProt position 403, RPVIHCRAGVG); Cys124 (UniProt position 125, HPGDFCADAQG); His81 (UniProt position 82, LKKKGHHEAEL); His119 (UniProt position 120, VLHSKHPGDFG); Cys65 (UniProt position 66, ELKGTCKEDAM); Cys17 (UniProt position 18, VKHLKCKPADE); Cys29 (UniProt position 108, GSCGSCWAFGA); His31 (UniProt position 31, TIGIGHLLTKS); His46 (UniProt position 128, TPETKHPKKGV); His8 (UniProt position 90, STKKLHKEPAT); Cys106 (UniProt position 106, LIAAICAGPTA); His12 (UniProt position 13, WQLVLHVWAKV); His48 (UniProt position 49, FDRFKHLKTEA); Cys125 (UniProt position 126, PGDFGCDAQGA); Cys145 (UniProt position 145, PILIPCHRVVC); Cys88 (UniProt position 88, ADGSICLDILQ); Cys126 (UniProt position 127, GDFGACAQGAM); Cys36 (UniProt position 37, YKQATCGDINT); Cys40 (UniProt position 40, FSASWCPPCRG); His124 (UniProt position 124, EWVKGHAGHPE); His127 (UniProt position 127, KGHAGHPENER); His62 (UniProt position 62, EALKEHCEVIL); His83 (UniProt position 83, ITQWIHNWKKR); His43 (UniProt position 43, IKPFFHSLSEK); Cys78 (UniProt position 79, YIDKVCELKKK); Cys215 (UniProt position 215, PVVVHCSAGIG).

Data set [1] addresses Cys46 (UniProt position 47, DFTFVCPTELG).
The target in data set [2] is His36 (UniProt position 37, RLFTGHPETLE).
The target in data set [3] is His113 (UniProt position 114, SDAIIHVLHSK).
In data set [4] the target is His116 (UniProt position 117, IIHVLHSKHPG).
The target in data set [5] is Cys283 (UniProt position 283, GYVLTCPANLG).
Data set [6] has as its target Cys32 (UniProt position 33, FWAEWCGPCKM).
Data set [7] concerns the target Cys283 (UniProt position 283, GYVLTCPSNLG).
Data set [8] addresses His116 (UniProt position 117, IIHVLHSRHPG).
Data set [9] has as its target His36 (UniProt position 37, RLFKSHPETLE).
For data set [10], the target named is His113 (UniProt position 114, SEAIIHVLHSR).
The target of data set [11] is Cys25 (UniProt position 157, GSCGSCWAFSA).
Data set [12] has as its target Cys46 (UniProt position 47, TERPGCLDFKG).
Data set [13] addresses Cys32 (UniProt position 32, FSATWCGPCKM).
For data set [14], the target named is Cys25 (UniProt position 158, GSCGSCWAFSA).

Broadly, the pKa is the negative logarithm of the acid dissociation constant. With “alkyl hydroperoxide reductase C (peroxiredoxin AhpC) (Salmonella enterica serovar Typhimurium (inferred; article says only 'bacterial'))”, the pKa with Cys46 [1] was 5.9.

Consider “protein tyrosine phosphatase YopH (Yersinia (species not stated; Y. enterocolitica for 1YPT to my knowledge))”, for which the pKa with Cys403 is recorded as 4.7.

“myoglobin G124C (Physeter macrocephalus (sperm whale); G124C)”: the pKa with Cys124 was 6.5.

“myoglobin (PDB 1DWR) (Equus caballus (horse; inferred))”: the pKa with His81 is recorded as 6.94; with His36 [2], 7.8; with His113 [3], 5.87; with His119, 6.56; with His116 [4], 6.79.

As to “acyl-CoA-binding protein (PDB 1NTI) S65C (Bos taurus (inferred); S65C)”, the pKa in the data set with Cys65 is 9.0.

For the substance “ubiquitin-conjugating enzyme UbcH10 (Homo sapiens)”, in the data set with Cys85, the pKa is recorded as 10.9.

As for “muscle creatine kinase S285A (Homo sapiens; S285A)”, in the data set with Cys283 [5], the pKa is listed as 6.7.

For the substance “acyl-CoA-binding protein (PDB 1NTI) T17C (Bos taurus (inferred); T17C)”, the pKa in the data set with Cys17 is given as 9.8.

On to alpha1-antitrypsin (Homo sapiens), for which the pKa in the data set on Cys210 is recorded as 6.9.

In the case of “methionine sulfoxide reductase A (MsrA) (Mus musculus)”, the pKa with Cys51 is given as 7.2.

With thioredoxin (Escherichia coli), in the data set with Cys32 [6], the pKa is given as 7.3.

As to cathepsin B (Rattus norvegicus), in the data set with Cys29, the pKa is on record as 3.6.

As to muscle creatine kinase (Homo sapiens), the pKa with Cys283 [7] is on record as 5.6.

In the case of “T4 lysozyme (PDB 2LZM) (Enterobacteria phage T4 (inferred))”, in the data set with His31, the pKa is on record as 9.1.

For “staphylococcal nuclease (PDB 1EY0) (Staphylococcus aureus (inferred))”, the results for the pKa in the data set with His46 and with His8 were 5.86 and 6.52, respectively.

Turning to DJ-1 (PARK7) (Homo sapiens), the pKa in the data set with Cys106 was 5.4.

Turning to “myoglobin (PDB 1A6K) (Physeter macrocephalus (sperm whale; inferred))”, the pKa with His81 is reported as 6.88; with His12, 6.49; with His116 [8], 6.70; with His48 it was 5.55; with His36 [9], 7.98; in the data set with His113 [10], 5.51.

Consider “methionine sulfoxide reductase A E115Q (Mus musculus; E115Q)”, for which the pKa in the data set on Cys51 is 8.2.

“myoglobin A125C (Physeter macrocephalus (sperm whale); A125C)”: in the data set with Cys125, the pKa was 8.4.

As to “O6-alkylguanine-DNA alkyltransferase (AGT/MGMT) (Homo sapiens)”, the pKa in the data set with Cys145 is 5.3.

Turning to “ubiquitin-conjugating enzyme E2 (PDB 1JAS; HsUbc2b) (Homo sapiens (inferred))”, in the data set with Cys88, the pKa is on record as 10.2.

As for “ubiquitin-conjugating enzyme Ubc13 (PDB 1JBB) (Saccharomyces cerevisiae (inferred))”, in the data set with Cys85, the pKa was 11.1.

Consider “myoglobin D126C (Physeter macrocephalus (sperm whale); D126C)”, for which the pKa in the data set with Cys126 was 8.1.

“caricain (papaya protease omega) (Carica papaya)”: the pKa with Cys25 [11] was 2.9.

For the substance “acyl-CoA-binding protein (PDB 1NTI) V36C (Bos taurus (inferred); V36C)”, the pKa with Cys36 is on record as 9.5.

With “tryparedoxin (Trypanosoma brucei (inferred from PDB 1O73))”, in the data set with Cys40, the pKa is recorded as 7.2.

With “acyl-CoA-binding protein (PDB 1NTI) M46C (Bos taurus (inferred); M46C)”, the pKa with Cys46 [12] is on record as 8.2.

On to ribonuclease HI (Escherichia coli), for which the pKa in the data set with His124 is recorded as 7.1; in the data set with His127, 7.9; in the data set with His62, 7.0; with His83, 5.5.

For the substance thioredoxin (Homo sapiens), the pKa with His43 is on record as 5.5; in the data set with Cys32 [13], 6.3.

For “acyl-CoA-binding protein (PDB 1NTI) E78C (Bos taurus (inferred); E78C)”, the pKa with Cys78 was 9.6.

“thiol:disulfide interchange protein DsbA (Escherichia coli (inferred))”: the pKa in the data set on Cys28 is 3.3.

Turning to “thiol-disulfide oxidoreductase ResA (Bacillus subtilis (inferred))”, the pKa in the data set on Cys35 is reported as 8.8.

In the case of “protein-tyrosine phosphatase 1B / PTP1 (Homo sapiens for the listed structure; the pKa source title says only 'mammalian' PTP1)”, in the data set with Cys215, the pKa is 5.6.

On to papain (Carica papaya), for which the pKa in the data set with Cys25 [14] is given as 3.3.
